Test results from article doi:10.1101/2020.09.22.308338 (bioRxiv, 2020).

Biological target: stabilized homotrimeric spike protein of SARS-CoV-2 (SARS-CoV-2 (Wuhan-Hu-1 sequence, strain …, UniProt P0DTC2, stabilised))
Assay: bead-based multiplex ACE2 competition assay

B1: nanobody NM1230 (VHH)
VHH: QVQLVESGGGLVRPGGSLRLSCVGSGFTFSGYAMNWYRQAPGKALELVAGISNAGDLTHYEEPMKGRVAISRANDKNTVYLQMDDLKPEDTAVYRCHAPGVRVGTGERKDVWGQGAQVTVSS
B1: binds.
